The chains are these.
B1: human ribonucleotide reductase large subunit (alpha) (enzyme, UniProt P23921 1-792, looked up)
chain: MHVIKRDGRQERVMFDKITSRIQKLCYGLNMDFVDPAQITMKVIQGLYSGVTTVELDTLAAETAATLTTKHPDYAILAARIAVSNLHKETKKVFSDVMEDLYNYINPHNGKHSPMVAKSTLDIVLANKDRLNSAIIYDRDFSYNYFGFKTLERSYLLKINGKVAERPQHMLMRVSVGIHKEDIDAAIETYNLLSERWFTHASPTLFNAGTNRPQLSSCFLLSMKDDSIEGIYDTLKQCALISKSAGGIGVAVSCIRATGSYIAGTNGNSNGLVPMLRVYNNTARYVDQGGNKRPGAFAIYLEPWHLDIFEFLDLKKNTGKEEQRARDLFFALWIPDLFMKRVETNQDWSLMCPNECPGLDEVWGEEFEKLYASYEKQGRVRKVVKAQQLWYAIIESQTETGTPYMLYKDSCNRKSNQQNLGTIKCSNLCTEIVEYTSKDEVAVCNLASLALNMYVTSEHTYDFKKLAEVTKVVVRNLNKIIDINYYPVPEACLSNKRHRPIGIGVQGLADAFILMRYPFESAEAQLLNKQIFETIYYGALEASCDLAKEQGPYETYEGSPVSKGILQYDMWNVTPTDLWDWKVLKEKIAKYGIRNSLLIAPMPTASTAQILGNNESIEPYTSNIYTRRVLSGEFQIVNPHLLKDLTERGLWHEEMKNQIIACNGSIQSIPEIPDDLKQLYKTVWEISQKTVLKMAAERGAFIDQSQSLNIHIAEPNYGKLTSMHFYGWKQGLKTGMYYLRTRPAANPIQFTLNKEKLKDKEKVSKEEEEKERNTAAMVCSLENRDECLMCGS
notes: human ribonucleotide reductase α (large) subunit, 792 residues; the final cryo-EM model holds two residues of tag and residues 1-743, and the 49-residue C-terminal tail is disordered; The number of copies depends on the nucleotides: α2 with TTP, α6 ring (three α2) with dATP, ATP, dATP + ATP, ClFDP or ClFTP; also called human α

Data set [1] deals with the molecule itself. The data set is described as follows: negative stain EM; α with 0.1 mM TTP, same buffer; 2D class averages.
Data set [2] deals with the molecule itself. The data set is described as follows: cryo-EM structure; 14 μM α with 0.05 mM dATP, 3 mM ATP, 1 mM CDP in 50 mM HEPES pH 7.6, 15 mM MgCl2, 1 mM EDTA, 5 mM DTT, 50 mM KCl, incubated at 37°C; single-particle map at 3.3 Å.
Data set [3] has as its target B1. The experiment in a line: negative stain EM; 3 μM α and 3 μM β with 3 mM ATP, 0.05 mM dATP, 1 mM CDP in 50 mM HEPES pH 7.6, 15 mM MgCl2, 50 mM KCl, 5 mM DTT, 37°C for 2 min, diluted ~20 fold; ISAC averages. As to conditions: both partners purified.

The text below walks through data of PMC5819950, “3.3-Å resolution cryo-EM structure of human ribonucleotide reductase with substrate and allosteric regulators bound” (eLife, 2018).

By stoichiometry N is commonly meant a count of units in the complex or per binding partner.

In the case of B1, the “stoichiometry N” value came out at 2 in data set [1] and 6 in data set [2].

B2: human ribonucleotide reductase β subunit (enzyme)
chain: TKAAAPGVEDEPLLRENPRRFVIFPIEYHDIWQMYKKAEASFWTAEEVDLSKDIQHWESLKPEERYFISHVLAFFAASDGIVNENLVERFSQEVQITEARCFYGFQIAMENIHSEMYSLLIDTYIKDPKEREFLFNAIETMPCVKKKADWALRWIGDKEATYGERVVAFAAVEGIFFSGSFASIFWLKKRGLMPGLTFSNELISRDEGLHCDFACLMFKHLVHKPSEERVREIIINAVRIEQEFLTEALPVKLIGMNCTLMKQYIEFVADRLMLELGFSKVFRVENPFDFMENISLEGKTNFFEKRVGEYQRMGVMSSPTENSFTLDADF
notes: human ribonucleotide reductase β (small) subunit, homodimer β2 with the diferric-tyrosyl radical cofactor; also called β2; human β
For B2, the “stoichiometry N” value in data set [3] is 1 β2 per α6 ring.
